Molecular target: pilra_human PILRA (UniProt Q9UKJ1)
Sequence (Q9UKJ1 whole entry): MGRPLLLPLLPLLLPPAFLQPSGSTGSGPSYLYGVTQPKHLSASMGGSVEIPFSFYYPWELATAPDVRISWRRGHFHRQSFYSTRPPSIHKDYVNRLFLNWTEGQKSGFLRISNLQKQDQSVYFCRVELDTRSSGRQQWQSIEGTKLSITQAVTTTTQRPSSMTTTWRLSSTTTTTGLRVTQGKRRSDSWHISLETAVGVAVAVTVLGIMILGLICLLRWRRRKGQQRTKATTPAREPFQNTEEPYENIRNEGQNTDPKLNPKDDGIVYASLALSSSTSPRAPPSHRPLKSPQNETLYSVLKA

Chain of Tyrosine-protein phosphatase non-receptor type 6 (Homo sapiens), P29350 D419A (P29350 whole entry D419A): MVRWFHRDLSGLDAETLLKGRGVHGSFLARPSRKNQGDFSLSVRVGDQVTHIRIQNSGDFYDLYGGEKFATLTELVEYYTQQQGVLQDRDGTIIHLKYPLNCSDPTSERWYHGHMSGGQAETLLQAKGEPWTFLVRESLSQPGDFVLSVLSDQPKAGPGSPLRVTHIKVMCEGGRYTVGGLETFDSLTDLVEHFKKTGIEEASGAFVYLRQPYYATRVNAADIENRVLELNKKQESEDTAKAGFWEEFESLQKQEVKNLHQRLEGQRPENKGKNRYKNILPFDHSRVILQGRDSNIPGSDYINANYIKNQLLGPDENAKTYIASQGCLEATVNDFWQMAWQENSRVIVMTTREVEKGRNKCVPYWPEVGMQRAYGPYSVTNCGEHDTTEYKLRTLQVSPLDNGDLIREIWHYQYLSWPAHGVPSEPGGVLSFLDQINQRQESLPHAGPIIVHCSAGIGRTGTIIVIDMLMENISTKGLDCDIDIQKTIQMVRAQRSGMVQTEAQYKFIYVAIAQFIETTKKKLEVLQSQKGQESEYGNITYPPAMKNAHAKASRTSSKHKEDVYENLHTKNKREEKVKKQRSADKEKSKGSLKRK

## Tyrosine-protein phosphatase non-receptor type 6 (Homo sapiens), P29350 D419A
  effect of a mutation on the interaction: increasing interaction

Source: IntAct's records for PubMed 10660620
